The values below are quoted from earlier work in PMC11769735.

pKd: −log10 of the molar value. Like-named read-outs stand apart in the source and are kept apart here.

The target of series [1] is G-actin (UniProt P68133).
For series [2], the target named is ADP-actin filament barbed end (UniProt P68133).
The target of series [3] is G-actin (UniProt P68133). This is another data set of the same source.

As to Twinfilin N-ADF-H (from UniProt Q91YR1), the pKd with G-actin [1] is 6.15.

On to Twinfilin (from UniProt Q91YR1), for which, in series [2], the pKd is 7.89.

In the case of Twinfilin C-ADF-H (from UniProt Q91YR1), the pKd with G-actin [3] is 7.30.
